Test results as given in US20250041326A1, “THERAPEUTIC AGENT FOR REFRACTORY VIRAL INFECTIONS” (TOKYO METROPOLITAN INSTITUTE OF MEDICAL SCIENCE, priority 2021, published 2025).

Experiments:
HBV [1] = assay: rcDNA and cccDNA in HBV-infected primary human hepatocytes treated with IFNλ1 protein; format: cell-based; conditions: primary human hepatocytes persistently infected with HBV, 15 days treatment
Method: Primary human hepatocytes persistently infected with HBV were treated with IFNλ1 protein for 15 days, and rcDNA and cccDNA were quantified.
Primary human hepatocytes persistently infected with HBV for 22 days or longer (PhoenixBio Co., Ltd., Japan) were cultured in a medium containing recombinant human IFN-lambda 1 (R&D systems) with medium replacement every 5 days, and the cells were collected after 15 days.
DNA in the cells were extracted by the sodium iodide method.
The cells were mixed with 200 μL of lysis buffer (10 mM EDTA, 500 mM 2-mercaptoethanol, 50 mM Tris-HCl, 75 mM KCl, 5% sarcosyl, 0.1 μg/μL protease K, pH 8.0), followed by heating at 55° C. for 20 minutes. After addition of 300 μL of a NaI solution (40 mM Tris-HCl, 20 mM EDTA, 7.6 M sodium iodide, coprecipitant), the mixture was allowed to stand at room temperature for 15 minutes. After addition of 600 μL of mixed alcohols (40% isopropanol, 60% 1-butanol), the mixture was cooled on ice for 15 minutes. The mixture was centrifuged at 4° C. at 15,000×g for 20 minutes to precipitate DNA. […]
were used, and an aliquot equivalent to 250 ng gDNA was measured according to the protocol of THUNDERBIRD Probe qPCR Mix (TOYOBO). […]
(§1) were used, and the Plasmid-Safe ATP-dependent DNase-treated product (equivalent to 50 ng total DNA) was measured according to the protocol of THUNDERBIRD Probe qPCR Mix (TOYOBO). […]

HBV [2] = assay: cccDNA in HepG2 cells stably expressing HBV; format: cell-based, human; conditions: 5 days, IRF1 plasmid 0.5 μg/well, IFN-lambda 1 100 ng/mL, or supernatant every day
Method: HepG2 cells made susceptible to HBV infection (HepG2-hNTCP-30 cells) were transfected with a 1.3-fold longer gene of HBV genotype C to prepare cells stably expressing HBV.
The primary human hepatocyte-derived human IRF1 gene (GenBank Accession No. NM_002198.3) was cloned into a pCI-neo Mammalian Expression Vector (Promega) to construct an IRF1 plasmid.
Using Lipofectamine 3000 (Invitrogen), the IRF1 plasmid (0.5 μg/well) was introduced by reverse transfection into HepG2 cells stably expressing HBV (2×10^5 cells/well, 48-well plate).
As an empty plasmid, a pCI-neo Mammalian Expression Vector was used.
Using the culture supernatant of the HepG2 cells stably expressing HBV (2×10^5 cells/well, 48-well plate) transfected with the IRF1 plasmid or the empty plasmid (0.5 μg/well), untransfected HepG2 cells stably expressing HBV (2×10^5 cells/well, 48-well plate) were treated every day for 5 days. Likewise, HepG2 cells stably expressing HBV were treated for 5 days with a medium containing recombinant human IFN-lambda 1 (100 ng/mL, R&D systems).
DNA in the cells were extracted by the sodium iodide method. […]
as §1

B1: IFNλ1 protein: recombinant human IFN-lambda 1 (R&D systems) (protein, UniProt Q8IU54 20-200, looked up)
Interferon lambda-1: GPVPTSKPTTTGKGCHIGRFKSLSPQELASFKKARDALEESLKLKNWSCSSPVFPGNWDLRLLQVRERPVALEAELALTLKVLEAAAGPALEDVLDQPLHTLHHILSQLQACIQPQPTAGPRPRGRLHHWLHRLQEAPKKESAGCLEASVTFNLFRLLTRDLKYVADGNLCLRTSTHPEST
In the case of B1, the cccDNA levels (HBV [1]) is reported as “reduced in a manner dependent on the amount”, the rcDNA levels (HBV [1]) is reported as “reduced in a manner dependent on the amount” and the cccDNA (HBV [2]) is reported as “not reduced”.
